Measured values as given in article PMC4264199, “Peptide Array on Cellulose Support—A Screening Tool to Identify Peptides with Dipeptidyl-Peptidase IV Inhibitory Activity within the Sequence of α-Lactalbumin” (International Journal of Molecular Sciences, 2014).
Ends that are not written are not given here.

Target: T1, dipeptidyl-peptidase IV (DPP-IV) (Homo sapiens, UniProt P27487)
T1 construct: purchased Creative BioMart (Shirley, NY, USA); host or cells: HEK293 human cells
Experiment: DPP-IV inhibition assay on SPOT-synthesized peptides (cleaved from cellulose membrane)
Assay type: biochemical
Settings: peptides cleaved from cellulose membrane, concentration not known (semi-quantitative); averages of four determinations from two experiments
Text: Recombinant human dipeptidyl-peptidase IV (DPP-IV, EC 3.4.14.5, expressed in HEK293 human cells, >95% purity, activity >5500 pmoles Gly–Pro–7-amido-4-methylcoumarin/min/µg) was purchased from Creative BioMart (Shirley, NY, USA) while polyclonal goat DPP-IV antibody and polyclonal donkey anti-goat secondary antibody conjugated to horseradish peroxidase were obtained from R&D Systems (Minneapolis, MN, USA). Pierce™ ECL western blotting substrate and protein-free (TBS) blocking buffer were from Thermo Scientific (Rockford, IL, USA). Gly–Pro–p-nitroanilide (H-Gly–Pro–p-NA∙HCl) was purchased from Bachem Americas (Torrance, CA, USA). Synthesized peptides (≥95% purity) were prepared and purified by GL Biochem (Shanghai) Ltd. (Shanghai, China).
Peptide arrays of deca-peptides spanning the entire α-lactalbumin sequence with a frame shift of one amino acid between successive sequences were prepared by Kinexus Bioinformatics Corporation (Vancouver, BC, Canada). The peptides were synthesized from the C-terminal amino acid using the SPOT technology consisting of the stepwise coupling of the Fmoc-protected amino acids and cleavage of the side chain protection groups. The α-lactalbumin-derived peptides were synthesized on trioxatridecanediamine (TOTD) and β-alanine-modified Whatman 540 cellulose membranes for the binding and inhibition assays, respectively. For the inhibition assay, the peptides were synthesized in large dots (5–7 mm in diameter) and the quality of the synthesis was verified by HPLC analysis of quality controls spots included on the membranes.
In order to determine the effect of the SPOT-synthesized peptides on the activity of the DPP-IV enzyme, the peptides were first cleaved from the cellulose support by incubating the membranes with gaseous ammonia overnight. Peptide spots (5 mm in diameter) were then punched out using a single-hole punch and transferred into microcentrifuge tubes containing 150 µL of acetonitrile (50% in 100 mM Tris–HCl buffer pH 8.0). The peptide solution (50 µL) was pipetted into a 96-well microplate with 35 µL of the chromogenic substrate Gly–Pro–p-NA (0.29 mM in 100 mM Tris–HCl buffer pH 8.0). The mixture was pre-incubated for 10 min at 37 °C, whereupon 15 µL of DPP-IV (25 mU/mL) was added and the enzymatic reaction was carried out for 30 min at 37 °C. The reaction was then terminated by addition of 100 µL of 1 M sodium acetate buffer pH 4.0 and the absorbance of the released p-nitroaniline was measured at 405 nm using a Tecan Infinite® 200 Pro microplate reader (ESBE Scientific, Markham, ON, Canada). Positive and negative controls (DPP-IV activity with no inhibitor and no DPP-IV activity, respectively) were prepared using punched peptide-free cellulose spots from the same membrane used for peptide synthesis, and adding Tris-HCl buffer in place of the sample and in place of the sample and enzyme solution, respectively.
One unit of DPP-IV was defined as the concentration of enzyme that releases 1 µmol per min of p-nitroaniline from Gly–Pro–p-NA (100 µM) at 37 °C and pH 8.0.

T1 sequence (P27487 whole entry): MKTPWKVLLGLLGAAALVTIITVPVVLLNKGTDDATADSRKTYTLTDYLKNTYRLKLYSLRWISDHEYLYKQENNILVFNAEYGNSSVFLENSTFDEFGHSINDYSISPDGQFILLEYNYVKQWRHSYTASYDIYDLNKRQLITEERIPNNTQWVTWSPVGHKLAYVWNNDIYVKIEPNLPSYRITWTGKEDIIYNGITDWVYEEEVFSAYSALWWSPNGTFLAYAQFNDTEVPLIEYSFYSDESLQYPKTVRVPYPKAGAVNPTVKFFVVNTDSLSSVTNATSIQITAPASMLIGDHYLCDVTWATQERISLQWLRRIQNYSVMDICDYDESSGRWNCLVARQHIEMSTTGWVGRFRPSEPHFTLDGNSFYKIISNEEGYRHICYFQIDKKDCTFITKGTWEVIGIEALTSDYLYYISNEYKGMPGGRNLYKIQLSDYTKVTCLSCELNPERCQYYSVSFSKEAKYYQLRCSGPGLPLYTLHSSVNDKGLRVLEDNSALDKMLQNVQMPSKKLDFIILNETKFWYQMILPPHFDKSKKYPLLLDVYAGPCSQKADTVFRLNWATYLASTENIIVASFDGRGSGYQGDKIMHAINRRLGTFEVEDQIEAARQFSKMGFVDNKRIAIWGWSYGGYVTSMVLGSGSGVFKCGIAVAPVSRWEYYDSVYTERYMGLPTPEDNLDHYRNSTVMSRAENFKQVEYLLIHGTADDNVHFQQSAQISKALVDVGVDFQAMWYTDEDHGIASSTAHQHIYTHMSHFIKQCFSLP

Substance | Percent inhibition of DPP-IV activity, SPOT-synthesized deca-peptides
A2: α-lactalbumin-derived deca-peptide, residues 2–11 (Table S1) (QFTKCELSQL; UniProt P00709 21-30, looked up, fragment) | 16%
A3: α-lactalbumin-derived deca-peptide, residues 3–12 (Table S1) (FTKCELSQLL; UniProt P00709 22-31, looked up, fragment) | 20%
A4: α-lactalbumin-derived deca-peptide, residues 4–13 (Table S1) (TKCELSQLLK; UniProt P00709 23-32, looked up, fragment) | 20%
A5: α-lactalbumin-derived deca-peptide, residues 5–14 (Table S1) (KCEVFRELKD; UniProt P00711 24-33, looked up, fragment) | 17%
A6: α-lactalbumin-derived deca-peptide, residues 6–15 (Table S1) (CEVFRELKDL; UniProt P00711 25-34, looked up, fragment) | 16%
A7: α-lactalbumin-derived deca-peptide, residues 7–16 (Table S1) (EVFRELKDLK; UniProt P00711 26-35, looked up, fragment) | 18%
A9: α-lactalbumin-derived deca-peptide, residues 9–18 (Table S1) (FRELKDLKGY; UniProt P00711 28-37, looked up, fragment) | 17%
AHKALCSEKL [J7] | 21%
AIVQNNDSTE [D7] | 11%
ALCSEKLDQW [J10] | 21%
B1: α-lactalbumin-derived deca-peptide, residues 12–21 (Table S1) (LKDLKGYGGV; UniProt P00711 31-40, looked up, fragment) | 11%
B2: α-lactalbumin-derived deca-peptide, residues 13–22 (Table S1) (KDLKGYGGVS; UniProt P00711 32-41, looked up, fragment) | 11%
B3: α-lactalbumin-derived deca-peptide, residues 14–23 (Table S1) (DIDGYGGIAL; UniProt P00709 33-42, looked up, fragment) | 13%
B4: α-lactalbumin-derived deca-peptide, residues 15–24 (Table S1) (LKGYGGVSLP; UniProt P00711 34-43, looked up, fragment) | 13%
B5: α-lactalbumin-derived deca-peptide, residues 16–25 (Table S1) (KGYGGVSLPE; UniProt P00711 35-44, looked up, fragment) | 11%
B7: α-lactalbumin-derived deca-peptide, residues 18–27 (Table S1) (YGGVSLPEWV; UniProt P00711 37-46, looked up, fragment) | 15%
B8: α-lactalbumin-derived deca-peptide, residues 19–28 (Table S1) (GGVSLPEWVC; UniProt P00711 38-47, looked up, fragment) | 15%
B9: α-lactalbumin-derived deca-peptide, residues 20–29 (Table S1) (GVSLPEWVCT; UniProt P00711 39-48, looked up, fragment) | 15%
C2: α-lactalbumin-derived deca-peptide, residues 24–33 (Table S1) (PEWVCTTFHT; UniProt P00711 43-52, looked up, fragment) | 14%
C3: α-lactalbumin-derived deca-peptide, residues 25–34 (Table S1) (ELICTMFHTS; UniProt P00709 44-53, looked up, fragment) | 18%

Substance | Percent inhibition of DPP-IV activity, SPOT-synthesized deca-peptides
C4: α-lactalbumin-derived deca-peptide, residues 26–35 (Table S1) (WVCTTFHTSG; UniProt P00711 45-54, looked up, fragment) | 26%
C5: α-lactalbumin-derived deca-peptide, residues 27–36 (Table S1) (ICTMFHTSGY; UniProt P00709 46-55, looked up, fragment) | 16%
C6: α-lactalbumin-derived deca-peptide, residues 28–37 (Table S1) (CTTFHTSGYD; UniProt P00711 47-56, looked up, fragment) | 10%
C7: α-lactalbumin-derived deca-peptide, residues 29–38 (Table S1) (TTFHTSGYDT; UniProt P00711 48-57, looked up, fragment) | 5%
C8: α-lactalbumin-derived deca-peptide, residues 30–39 (Table S1) (TFHTSGYDTQ; UniProt P00711 49-58, looked up, fragment) | 13%
CDKFLDDDLT [G11] | 22%
CSEKLDQWLC [K1] | 22%
D1: α-lactalbumin-derived deca-peptide, residues 34–43 (Table S1) (SGYDTQAIVE; UniProt P00709 53-62, looked up, fragment) | 11%
D2: α-lactalbumin-derived deca-peptide, residues 35–44 (Table S1) (GYDTQAIVQN; UniProt P00711 54-63, looked up, fragment) | 9%
D3: α-lactalbumin-derived deca-peptide, residues 36–45 (Table S1) (YDTQAIVENN; UniProt P00709 55-64, looked up, fragment) | 11%
D5: α-lactalbumin-derived deca-peptide, residues 38–47 (Table S1) (TQAIVQNNDS; UniProt P00711 57-66, looked up, fragment) | 14%
D6: α-lactalbumin-derived deca-peptide, residues 39–48 (Table S1) (QAIVQNNDST; UniProt P00711 58-67, looked up, fragment) | 14%
DDQNPHSSNI [F8] | 15%
DQNPHSSNIC [F9] | 15%
DSTEYGLFQI [E2] | 14%
EKLDQWLCEK [K3] | 24%
ELKDLKGYGG [A11] | 8%
EYGLFQINNK [E5] | 10%
FQINNKIWCK [E9] | 20%
